We go through four molecules from patent publication US20140087995A1 (published 2014).

One may read the IC50 as the concentration at which inhibition is half-maximal.

In test [1] the target is T1, rat amylin receptor (rat calcitonin receptor + rat RAMP 3) (rat, UniProt P32214 25-516; Q9JJ73 23-147).
T1 construct: whole, on cells; Membranes prepared from transiently transfected BHK tk'ts 13 cells (Assay VI); also called rAmylin-R; rAmylin
T1 sequence (looked up) 1: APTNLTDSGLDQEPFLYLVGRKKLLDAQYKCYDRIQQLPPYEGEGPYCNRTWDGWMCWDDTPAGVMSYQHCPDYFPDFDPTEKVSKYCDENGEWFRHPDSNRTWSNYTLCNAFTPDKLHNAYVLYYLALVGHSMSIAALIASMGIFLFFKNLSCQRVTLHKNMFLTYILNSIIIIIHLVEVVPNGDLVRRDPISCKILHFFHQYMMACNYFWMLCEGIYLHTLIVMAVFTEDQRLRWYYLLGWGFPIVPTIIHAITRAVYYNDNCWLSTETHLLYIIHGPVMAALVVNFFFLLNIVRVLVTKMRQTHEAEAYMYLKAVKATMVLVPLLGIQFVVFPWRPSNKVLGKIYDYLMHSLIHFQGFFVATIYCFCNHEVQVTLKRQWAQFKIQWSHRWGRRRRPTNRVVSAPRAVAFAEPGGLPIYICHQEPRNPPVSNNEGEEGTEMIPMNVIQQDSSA
T1 sequence (looked up) 2: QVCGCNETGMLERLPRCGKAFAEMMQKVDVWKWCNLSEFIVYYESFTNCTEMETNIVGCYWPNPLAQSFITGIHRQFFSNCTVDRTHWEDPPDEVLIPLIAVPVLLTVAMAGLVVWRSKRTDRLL
Put plainly: SPA competition vs 125I-rat amylin, membranes of BHK cells with rat calcitonin receptor + rat RAMP3 (Assay VI).

Test [2] has as its target T2, rat calcitonin receptor (rat, UniProt P32214 25-516).
T2 construct: whole, on cells; Membranes prepared from transiently transfected BHK tk'ts 13 cells (Assay VIII); also called rCTR; rCT
T2 sequence (looked up): T1 sequence (looked up) 1
Put plainly: ratio of binding IC50s: rat calcitonin receptor / rat amylin receptor (reference).

Test [3] addresses T3, human calcitonin receptor (human, UniProt P30988 25-474).
T3 construct: whole, on cells; Membranes prepared from a stably transfected BHK cell line (Assay VII); also called hCTR; hCT
T3 sequence (looked up): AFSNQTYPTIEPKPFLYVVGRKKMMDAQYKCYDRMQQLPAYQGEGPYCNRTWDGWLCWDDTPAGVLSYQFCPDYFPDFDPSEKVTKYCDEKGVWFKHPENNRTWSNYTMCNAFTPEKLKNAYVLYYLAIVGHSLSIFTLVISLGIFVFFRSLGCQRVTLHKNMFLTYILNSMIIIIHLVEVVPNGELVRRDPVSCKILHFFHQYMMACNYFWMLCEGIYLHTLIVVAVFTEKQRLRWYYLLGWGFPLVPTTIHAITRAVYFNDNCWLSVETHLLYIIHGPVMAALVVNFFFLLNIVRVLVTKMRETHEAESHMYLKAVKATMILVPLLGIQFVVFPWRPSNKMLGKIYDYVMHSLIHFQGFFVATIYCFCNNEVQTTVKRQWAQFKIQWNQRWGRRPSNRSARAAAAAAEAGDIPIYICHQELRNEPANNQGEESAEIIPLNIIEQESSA
The test is described as follows: ratio of binding IC50s: human calcitonin receptor / human amylin receptor (reference). The procedure, abridged:
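Membranes (35 ng/μL final) + SPA beads, 50 mM Hepes pH 7.4 buffer with 1 mM CaCl2, 5 mM MgCl₂, 0.1% OA, 0.02% Tween20; 120 min, 25° C, shaking; centrifuged, counted; IC₅₀ by one-site binding competition.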

The target of test [4] is T2, rat calcitonin receptor. The test is described as follows: SPA competition vs 125I-calcitonin, membranes of BHK cells with rat calcitonin receptor (Assay VIII).

Numbered stars: 1 amine (or outer) side, 2 acyl side, 3 side chain; on linkers, the order of the positions; unused ones are H or OH. Bridge positions count the residues as written; N and C are the ends. Side chains are listed from the residue outwards. Ends that are not written are not given here. * marks the point of attachment. C20 diacid = O=C(O)CCCCCCCCCCCCCCCCCCC(=O)*; γGlu = O=C(O)[C@H](CCC(=O)[*:2])N[*:1]

B1: N^ε1-[(4S)-4-carboxy-4-(19-carboxynonadecanoylamino)butanoyl]-[His14,Arg17,Pro21,Pro27,Arg34]-h-amylin (peptide)
peptide: K([γGlu-C20 diacid])CNTATCATQRLAHFLRHSSPNFGAIPSSTNVGRNTY-NH2
modifications: disulfide 2-7; N-terminus assumed
SMILES: CC[C@H](C)[C@H](NC(=O)[C@H](C)NC(=O)CNC(=O)[C@H](Cc1ccccc1)NC(=O)[C@H](CC(N)=O)NC(=O)[C@@H]1CCCN1C(=O)[C@H](CO)NC(=O)[C@H](CO)NC(=O)[C@H](Cc1c[nH]cn1)NC(=O)[C@H](CCCNC(=N)N)NC(=O)[C@H](CC(C)C)NC(=O)[C@H](Cc1ccccc1)NC(=O)[C@H](Cc1c[nH]cn1)NC(=O)[C@H](C)NC(=O)[C@H](CC(C)C)NC(=O)[C@H](CCCNC(=N)N)NC(=O)[C@H](CCC(N)=O)NC(=O)[C@@H](NC(=O)[C@H](C)NC(=O)[C@@H]1CSSC[C@H](NC(=O)[C@@H](N)CCCCNC(=O)CC[C@H](NC(=O)CCCCCCCCCCCCCCCCCCC(=O)O)C(=O)O)C(=O)N[C@@H](CC(N)=O)C(=O)N[C@@H]([C@@H](C)O)C(=O)N[C@@H](C)C(=O)N[C@@H]([C@@H](C)O)C(=O)N1)[C@@H](C)O)C(=O)N1CCC[C@H]1C(=O)N[C@@H](CO)C(=O)N[C@@H](CO)C(=O)N[C@H](C(=O)N[C@@H](CC(N)=O)C(=O)N[C@H](C(=O)NCC(=O)N[C@@H](CCCNC(=N)N)C(=O)N[C@@H](CC(N)=O)C(=O)N[C@H](C(=O)N[C@@H](Cc1ccc(O)cc1)C(N)=O)[C@@H](C)O)C(C)C)[C@@H](C)O
notes: Analogue of human amylin; also called compound 85
Take B1: the IC50 in test [1] is 3.14 nM; with rat calcitonin receptor [4] it was 146 nM. For the same molecule, the “Ratio rCT/rAmylin binding” value in the test with rat calcitonin receptor [2] stood at 46.5. Also, the “Ratio hCT/hAmylin binding” value in test [3] is 91.8.

B2: N^ε1-[(4S)-4-carboxy-4-(19-carboxynonadecanoylamino)butanoyl]-[His14,Arg17,Pro21,Pro27,His34]-h-amylin (peptide)
peptide: K([γGlu-C20 diacid])CNTATCATQRLAHFLRHSSPNFGAIPSSTNVGHNTY-NH2
modifications: disulfide 2-7; N-terminus assumed
SMILES: CC[C@H](C)[C@H](NC(=O)[C@H](C)NC(=O)CNC(=O)[C@H](Cc1ccccc1)NC(=O)[C@H](CC(N)=O)NC(=O)[C@@H]1CCCN1C(=O)[C@H](CO)NC(=O)[C@H](CO)NC(=O)[C@H](Cc1c[nH]cn1)NC(=O)[C@H](CCCNC(=N)N)NC(=O)[C@H](CC(C)C)NC(=O)[C@H](Cc1ccccc1)NC(=O)[C@H](Cc1c[nH]cn1)NC(=O)[C@H](C)NC(=O)[C@H](CC(C)C)NC(=O)[C@H](CCCNC(=N)N)NC(=O)[C@H](CCC(N)=O)NC(=O)[C@@H](NC(=O)[C@H](C)NC(=O)[C@@H]1CSSC[C@H](NC(=O)[C@@H](N)CCCCNC(=O)CC[C@H](NC(=O)CCCCCCCCCCCCCCCCCCC(=O)O)C(=O)O)C(=O)N[C@@H](CC(N)=O)C(=O)N[C@@H]([C@@H](C)O)C(=O)N[C@@H](C)C(=O)N[C@@H]([C@@H](C)O)C(=O)N1)[C@@H](C)O)C(=O)N1CCC[C@H]1C(=O)N[C@@H](CO)C(=O)N[C@@H](CO)C(=O)N[C@H](C(=O)N[C@@H](CC(N)=O)C(=O)N[C@H](C(=O)NCC(=O)N[C@@H](Cc1c[nH]cn1)C(=O)N[C@@H](CC(N)=O)C(=O)N[C@H](C(=O)N[C@@H](Cc1ccc(O)cc1)C(N)=O)[C@@H](C)O)C(C)C)[C@@H](C)O
notes: Analogue of human amylin; also called compound 81
Regarding B2, the IC50 came to 1.42 nM in test [1] and 61.1 nM with rat calcitonin receptor [4]. Moreover, the “Ratio rCT/rAmylin binding” value with rat calcitonin receptor [2] worked out at 42.9. The “Ratio hCT/hAmylin binding” value in test [3] was determined as 87.2.

B3: N^ε1-[(4S)-4-carboxy-4-(19-carboxynonadecanoylamino)butanoyl]-[His14,Arg17,Pro21,Pro27,Pro31]-h-amylin (peptide)
peptide: K([γGlu-C20 diacid])CNTATCATQRLAHFLRHSSPNFGAIPSSTPVGSNTY-NH2
modifications: disulfide 2-7; N-terminus assumed
SMILES: CC[C@H](C)[C@H](NC(=O)[C@H](C)NC(=O)CNC(=O)[C@H](Cc1ccccc1)NC(=O)[C@H](CC(N)=O)NC(=O)[C@@H]1CCCN1C(=O)[C@H](CO)NC(=O)[C@H](CO)NC(=O)[C@H](Cc1c[nH]cn1)NC(=O)[C@H](CCCNC(=N)N)NC(=O)[C@H](CC(C)C)NC(=O)[C@H](Cc1ccccc1)NC(=O)[C@H](Cc1c[nH]cn1)NC(=O)[C@H](C)NC(=O)[C@H](CC(C)C)NC(=O)[C@H](CCCNC(=N)N)NC(=O)[C@H](CCC(N)=O)NC(=O)[C@@H](NC(=O)[C@H](C)NC(=O)[C@@H]1CSSC[C@H](NC(=O)[C@@H](N)CCCCNC(=O)CC[C@H](NC(=O)CCCCCCCCCCCCCCCCCCC(=O)O)C(=O)O)C(=O)N[C@@H](CC(N)=O)C(=O)N[C@@H]([C@@H](C)O)C(=O)N[C@@H](C)C(=O)N[C@@H]([C@@H](C)O)C(=O)N1)[C@@H](C)O)C(=O)N1CCC[C@H]1C(=O)N[C@@H](CO)C(=O)N[C@@H](CO)C(=O)N[C@H](C(=O)N1CCC[C@H]1C(=O)N[C@H](C(=O)NCC(=O)N[C@@H](CO)C(=O)N[C@@H](CC(N)=O)C(=O)N[C@H](C(=O)N[C@@H](Cc1ccc(O)cc1)C(N)=O)[C@@H](C)O)C(C)C)[C@@H](C)O
notes: Analogue of human amylin; also called compound 62
For the molecule B3, the IC50 was 0.42 nM in test [1] and 18 nM with rat calcitonin receptor [4]. The “Ratio rCT/rAmylin binding” value in the test with rat calcitonin receptor [2] is 42.8. For the same molecule, the “Ratio hCT/hAmylin binding” value in test [3] is 63.

B4: N^ε1-[(4S)-4-carboxy-4-(19-carboxynonadecanoylamino)butanoyl]-[His14,Arg17,Pro21,Pro27,His35]-h-amylin (peptide)
peptide: K([γGlu-C20 diacid])CNTATCATQRLAHFLRHSSPNFGAIPSSTNVGSHTY-NH2
modifications: disulfide 2-7; N-terminus assumed
SMILES: CC[C@H](C)[C@H](NC(=O)[C@H](C)NC(=O)CNC(=O)[C@H](Cc1ccccc1)NC(=O)[C@H](CC(N)=O)NC(=O)[C@@H]1CCCN1C(=O)[C@H](CO)NC(=O)[C@H](CO)NC(=O)[C@H](Cc1c[nH]cn1)NC(=O)[C@H](CCCNC(=N)N)NC(=O)[C@H](CC(C)C)NC(=O)[C@H](Cc1ccccc1)NC(=O)[C@H](Cc1c[nH]cn1)NC(=O)[C@H](C)NC(=O)[C@H](CC(C)C)NC(=O)[C@H](CCCNC(=N)N)NC(=O)[C@H](CCC(N)=O)NC(=O)[C@@H](NC(=O)[C@H](C)NC(=O)[C@@H]1CSSC[C@H](NC(=O)[C@@H](N)CCCCNC(=O)CC[C@H](NC(=O)CCCCCCCCCCCCCCCCCCC(=O)O)C(=O)O)C(=O)N[C@@H](CC(N)=O)C(=O)N[C@@H]([C@@H](C)O)C(=O)N[C@@H](C)C(=O)N[C@@H]([C@@H](C)O)C(=O)N1)[C@@H](C)O)C(=O)N1CCC[C@H]1C(=O)N[C@@H](CO)C(=O)N[C@@H](CO)C(=O)N[C@H](C(=O)N[C@@H](CC(N)=O)C(=O)N[C@H](C(=O)NCC(=O)N[C@@H](CO)C(=O)N[C@@H](Cc1c[nH]cn1)C(=O)N[C@H](C(=O)N[C@@H](Cc1ccc(O)cc1)C(N)=O)[C@@H](C)O)C(C)C)[C@@H](C)O
notes: Analogue of human amylin; also called compound 66
With B4, the values for the IC50 (in test [1]; with rat calcitonin receptor [4]) were 0.581 nM and 20.8 nM, respectively. Further, the “Ratio rCT/rAmylin binding” value in the test with rat calcitonin receptor [2] was determined as 35.8. The “Ratio hCT/hAmylin binding” value in test [3] was determined as 45.5.
